Experimental findings from the DeepSol protein solubility set are described below.

This series in a line: soluble on expression in E. coli; label from the status in PepcDB or PDB records.
Turning to “GFVEPHVHPLIASIMLPNEIIAPYDWVLPHTVKKGVQDHDSYLKAVTKSVNENANKDEVYFIWGYHQLWHGELNRDILNNISKDKPIAIIHRSFHEIFLNDAAISKLGIKKSDFANNPQVYWEKGHFYEGGWFALVPMMASELLAPKKYLQGLAMMSELVEKNGITTIGEPGFPSSSFDTEYTLLKQEMDTKPPFDIFLIPNGTQLYGMKGSNENALTFMNSLPEKYNTSNIQFLPKQVKLFADGAIYSQLMQMKDGYIDGHKGEWITPLALFQQQLDFYWDRDFKIHTHANGDLGIQEVMGFVSKAQKRTPRKDHRFTLHHMGYFDDTQAQQVADLQIDASVNPYYLWALADKYAEHGLGKERGENLVRMKSLTDRGVHLSFHSDFSMAPMEPLTLAWTAVNRITSQGSKFSQAQRLDMYTAMKAITIGAARVLSQEHKIGSIKKGKTANFTILAENPFKVEPIALKDIDIITTVFRGTLSKPLH”, the “soluble on expression in E. coli” value is given as “not soluble”.

In the case of “GGGVMHYTDKAALPADGEAREVAALFDTWNAALATGNPHKVADLYAPDGVLLPTVSNEVRASREQIENYFEMFLTKKPKGVINYRTVRLLDDDSAVDAGVYTFTLTDKNGKKSDVQARYTFVYEKRDGKWLIINHHSSAMPEVDTATATAAVTKAK”, the “soluble on expression in E. coli” value is “soluble”. With “GGYSSEQQEDLEAIAPAVVQALQRKKAEEALRLSNIYNRSLIESSLDPLVTIGRDGKITDVNCATEQVTGYPRNDLIKTDFSDYFTEPENARAGYKQVFTDGEVRDYPLEIQHKDGHITPVLYNASVYRDEN”, the “soluble on expression in E. coli” value is “not soluble”.

As to “GHEIKDIREDTMHAEFNALRAQVAINDGNPDEAERLAKLALEELPPGWFYSRIVATSVLGEVLHCKGELTRSLALMQQTEQMARQHDVWHYALWSLIQQSEILFAQGFLQTAWETQEKAFQLINEQHLEQLPMHEFLVRIRAQLLWAWARLDEAEASARSGIEVLSSYQPQQQLQCLAMLIQCSLARGDLDNARSQLNRLENLLGNGKYHSDWISNANKVRVIYWQMTGDKAAAANWLRHTAKPEFANNHFLQGQWRNIARAQILLGEFEPAEIVLEELNENARSLRLMSDLNRNLLLLNQLYWQAGRKSDAQRVLLDALKLANRTGFISHFVIEGEAMAQQLRQLIQLNTLPELEQHRAQRILREINQHHGA”, the “soluble on expression in E. coli” value is listed as “soluble”. Then “GHHHHHHHHHHSSGHIEGRHNMPVVIKTEGPAWTPLEPKLITRLADTVRTKGLRSPITMAEVEALMSSPLLPHDVTNLMRVILGPAPYALWMDAWGVQLQTVIAAATRDPRHPANGQGRGERTNLDRLKGLADGMVGNPQGQAALLRPGELVAITASALQAFREVARLAEPAGPWADITQGPSESFVDFANRLIKAVEGSDLPPSARAPVIIDCFRQKSQPDIQQLIRAAPSTLTTPGEIIKYVLDRQKIAPLTDQGIAAAM”, with “soluble”. Regarding “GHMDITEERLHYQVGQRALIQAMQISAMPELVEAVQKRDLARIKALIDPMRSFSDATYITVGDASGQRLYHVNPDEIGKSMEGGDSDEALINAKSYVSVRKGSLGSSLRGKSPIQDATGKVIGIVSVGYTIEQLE”, the “soluble on expression in E. coli” value is “soluble”. As to “GHMLVMRPAQAADLPQVQRLAADSPVGVTSLPDDAERLRDKILASEASFAAEVSYNGEESYFFVLEDSASGELVGCSAIVASAGFSEPFYSFRNETFVHASRSLSIHNKIHVLSLCHDLTGNSLLTSFYVQRDLVQSVYAELNSRGRLLFMASHPERFADAVVVEIVGYSDEQGESPFWNAVGRNFFDLNYIEAEKLSGLKSRTFLAELMPHYPIYVPLLPDAAQESMGQVHPRAQITFDILMREGFETDNYIDIFDGGPTLHARTSGIRSIAQSRVVPVKIGEAPKSGRPYLVTNGQLQDFRAVVLDLDWAPGKPVALSVEAAEALGVGEGASVRLVAVGS”, the “soluble on expression in E. coli” value was “soluble”. As to “GHMNMSQSQEIVLQPRSIVVPGELLAEGEFQIPWSPYILKINSKYYSTVVGLFDVKDTQFEVIPLEGSFYYPKINDIVIGLVEDVEIYGWVVDIKAPYKAYLPASNLLGRSINVGEDLRRYLDVGDYVIARIENFDRSIDPVLSVKGKDLGRVSNGIVIDIMPVKVPRVIGKNKSMYETLTSKSGCSIFVANNGRIWATCPSRFSEEILIEAIRKIENESHIKGLTDRIKQFIEEKLGERNASSGETKTNS”, the “soluble on expression in E. coli” value is on record as “soluble”. Turning to “GHMSETYDFLFKFLVIGNAGTGKSCLLHQFIEKKFKDDSNHTIGVEFGSKIINVGGKYVKLQIWDTAGQERFRSVTRSYYRGAAGALLVYDITSRETYNALTNWLTDARMLASQNIVIILCGNKKDLDADREVTFLEASRFAQENELMFLETSALTGENVEEAFVQCARKILNKIESGELDPERMG”, the “soluble on expression in E. coli” value is on record as “soluble”. To “GHMSVYHHILLAVDFSSEDSQVVQKVRNLASQIGARLSLIHVLDNIPMPDTPYGTAIPLDTETTYDAMLDVEKQKLSQIGNTLGIDPAHRWLVWGEPREEIIRIAEQENVDLIVVGSHGRHGLALLLGSTANSVLHYAKCDVLAVRLRDD” belongs “soluble”. Then “GIDPFTKMGGDRRPITILTSDLRGFTSTSEGLNPEEVVKVLNIYFGKMADVITHHGGTIDEFMGDGILVLFGAPTSQQDDALRAVACGVEMQLALREVNQQVTGLGLQPLEMGIGINTGEVVVGNIGSEKRTKYGVVGAQVNLTYRIESYTTGGQIFISSTTLEAAGDRVHVNGNRTVQPKGVKDPVVIWDVAGVGEPYNLSLAVEEQ”, with “soluble”; and “GIIEAHCHVGIQEEKRGFEGNDCNEMTNPVTPYLRALDGINPMDSAFYTALTAGITGIMVGPGSANVVGGQWMFLKTYGRAIDKMVVLQPSAMKIAFGENPKANYDKKNMMPSTRIAIAAMLREELFEAQQYYEKRKNAEKSGDSFNKEFRKECWVPVFDKKIPLKAHVHRADDILTAIRIAKEFNLNLTLDHCTEGHLVAKEIKESGFPAIVGPTLTSRNKIETQYADFKTAGILHNEGVKVAITTDHPVTRIQDLLICAGLAAKEGLGIEEGLKAITINPAEICNVANRVGSIEVNKDADIAIFDGNPMETFTKTMYTIINGEIVY”, with “not soluble”; and “GIPRNSSTGAKTAKSDKLKVVATNSIIADMTKAIAGDKIDLHSIVPIGQDPHEYEPLPEDAEKTSNADVIFYNGINLEDGGQAWFTKLVKNAQKTKNKDYFAVSDGIDVIYLEGASEKGKEDPHAWLNLENGIIYSKNIAKQLIAKDPKNKETYEKNLKAYVAKLEKLDKEAKSKFDAIAENKKLIVTSEGCFKYFSKAYGVPSAYIWEINTEEEGTPDQISSLIEKLKVIKPSALFVESSVDRRPMETVSKDSGIPIYSEIFTDSIAKKGKPGDSYYAMMKWNLDKISEGLAK”, with “soluble”. Then “GKLHEPYEIIVIDVPSEYQGNVTQLLATRKGLMQSMSTTPGSDWIRMEFRIPARGLIGFRTQFMTETRGTGIANSYSDGMDVWAGEIKGRAHGSLVADRSGQITAYALTQLADRGSFFVEPGTETYEGVV”, with “not soluble”. Take “GLDTIPTTYVDAGSVFGKTGDAEKVLNGGWNYLMETFNSYANPGYGAMLRANDAMGSDVVLNSKYGFRTHNEFSAIYGKGGTNTLSWLLAYRVINDCNGVLDNIDAAEGTQADRNRIKGQALALRGFLYLHLASCYSFAIDKDPDAVCAPIYTQSTDETIAAEGKPASSVSEVYAQSINDLEEALELIPETYVRDAKHKIDNEVVLGILSRACLYARQWEKAKTYSDKLLAKDNYLMTESEYKAGFNSVDNKEWIWGHAQTNDQSNASYQFHYLDTTTKGSYYYSFNVDPYFRDLFEDGDYRKEMLFWATDPGADVESAAYVWMRNSKFRFRDIENQLGDIVLMRVAEIYLINAEAKAHLNDPDAINKLNDLKTARGAKTIHTNLSQQDLLETIWLERRKELWGEGFSLIDIIRNQQTVVRNAYPEGPIDYIYTDENGQTHTLKKKTQGHRFFNFPDKSAFCPNSKYYLYRITDSEELANKNLYKDHPKLSIYTK”: the “soluble on expression in E. coli” value was “soluble”. Turning to “GLESFSLTSHEKKFGVNIEFSDVNFSYPKQTNHRTLKSINFFIPSGTTCALVGHTGSGKSTIAKLLYRFYDAEGDIKIGGKNVNKYNRNSIRSIIGIVPQDTILFNETIKYNILYGKLDATDEEVIKATKSAQLYDFIEALPKKWDTIVGNKGMKLSGGERQRIAIARCLLKDPKIVIFDEATSSLDSKTEYLFQKAVEDLRKNRTLIIIAHRLSTISSAESIILLNKGKIVEKGTHKDLLKLNGEYAEMWNMQSGGNDI”, the “soluble on expression in E. coli” value is on record as “soluble”. Then “GLGGEPVIVYADRGRSVIAAVEGRVEDLVRGDMIVVQADSNGEEVVYIASSPTEPPEVYRFKGGDVERVSSINRWVVEEFRLYKPRRVEVEAEGEVVEGWYIEPEGEGRKPLILFIHGGPKGMYGYGFYGEMQLFASEGFTVAYANPRGSDGYEEEFADIRGRYGDTDYKQLMKFLDAVVEGSDVDEGKMAVTGISYGGYMTNVIVTKTSRFRAAVSENGIADWIADFWAADIGYWFDPDQIGGTPLDNLEEYVKRSPAFHAKNVNTPVMLIHSMEDYRCFIDQALAMHTALKVNGKESFLVVFTKGSHGHSILASPRHRRKRLELKLKWIKEKLG”, with “not soluble”. To “GLPDSAFEHDGQLTKRDVRAITLARLAPVPGELLWDVGAGCGSIGIEWMRAHPTCRAMAIEADEGRQQLIEFNRDALGVPGLQLVRGSAPQALSGLERPDAIFIGGGVTRIGVLETCWEQLRSGGRLVANAVTLQSEAALMAWRERHGGELTRIHVAHAQPLGEFDTWRQALPITLLDVVKP” belongs “not soluble”.

On to “GMADIDQASKTEMEAAAFRHLLRHLDEHKDVQNIDLMIQADFCRNCLAKWLMEAATEQGVELDYDGAREYVYGMPFAEWKTLYQKPASEAQLAAFEAKQAARKR”, for which the “soluble on expression in E. coli” value was “soluble”.

On to “GMAGAAHRLMEARMRRYDNKFARISDIDINQPESWRGRIFLTFDIDWAADFVLQDTIDLIEGAGVCATWFATHSTPLLENIRRNPLFELGVHPNFNPLLAGAHAEGVQEILDRTLELAPGCVSVRSHSLVQATSILNMFGERRLRYDCNILVPWDAGIVLQPWRHWTGDMVRVPYLWEDDVACLYDWEFDSTFDYWYQPDGINVLDFHPIHVYMNTESLRRYEDSREVHRNPVDLIRWRNTSAGSRTFLQSLLARNI”, for which the “soluble on expression in E. coli” value is listed as “soluble”. With “GMATSTDRTQEIQKLHELIKNIDYGMFTTVDDDGSLHSYPMSKSGDINSEATLWFFTYAGSHKVTEIEHHEQVNVSFSSPEQQRYVSISGTSQLVKDRNKMRELWKPELQTWFPKGLDEPDIALLKVNINQVNYWDSTSSFKPQTISF”, the “soluble on expression in E. coli” value is reported as “soluble”.

Consider “GMDMKTKLQTIIGMFQITAWDETSYFESDNGAKLTQAVITQSYQGVLQGHSEIRYLMSYQDNANATFVGFEHFTGSLGDKKGSFILQHKGLFAAGVASSEFELVERSATGDFVHLVGKGHFVSTENGQANYQITLQDS”, for which the “soluble on expression in E. coli” value is listed as “soluble”. Consider “GMDTAKTKPFDEMFLQDEVIRPIYAEYAAWLQDVPHQQLESKRQEAELLFRRVGITFNVYGEDAGAERLIPFDVVPRILSASEWARLSDGAIQRVKALNMFLHDVYHDQEIIKAGIVPSSILANAQYRPEMFGVDVPGGVYAHIAGVDLVRTGENDFYVLEDNLRTPSGVSYMLENRKMMMRLFPELFRRYPVAPVEHYPQVLLNNLRAVAQAGVHEPTVVLLTPGAYNSAYFEHAFIAQQMGIELVEGQDLFVRNNAVYMRTTEGPKRVDVIYRRIDDDFIDPLSFRPDSMLGVPGLLSVYRNGGVTLANAVGTGVADDKDTYIYVPEMIRFYLGEEPILSNVPTYQLSKADDLKYVLDNLAELVVKEVQGSGGYGMLVGPAASKQELEDFRQRILANPANYIAQPTLALSTCPTLVETGIAPRHVDLRPFVLSGKTVSLVPGALCRVALREGSLVVNSSQGGGTKDTWILKD”, for which the “soluble on expression in E. coli” value was “soluble”.
